Where a chain is given by its changes, count along the chain named.
T1: granulysin mutant RRRR97/100/104/108AAAA (Homo sapiens (Human), UniProt P22749 23-145, limits assumed)
T1 construct: Expressed in 293T cells, culture supernatant used; not shown: His tag
T1 chain: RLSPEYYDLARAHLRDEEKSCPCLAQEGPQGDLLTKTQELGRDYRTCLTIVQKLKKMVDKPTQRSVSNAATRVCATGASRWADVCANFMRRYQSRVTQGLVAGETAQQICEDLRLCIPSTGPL

T2: granulysin mutant RRRRR94/97/100/102/104AAAAA (Homo sapiens (Human), UniProt P22749 23-145, limits assumed)
T2 construct: not shown: His tag
T2 chain: T1 chain with R72A, R80A, A86R

T3: denatured granulysin (10His tag, expressed in 293T cells, run on denaturing SDS-PAGE) (UniProt P22749 23-145, limits assumed)
T3 construct: Same protein as native granulysin but denatured; probed on a blot with the test antibodies and anti-human-HRP; not shown: 10His tag
T3 sequence (looked up): T1 chain with A75R, A78R, A82R, A86R

B1: BGF33-19 (antibody, V domains shown)
VH: QVQLQQSGAELVRPGTSVKVSCKASGYAFTNYLIEWVKQRPGQGLEWIGVINPGSGGTNYNEKFKGKATLTADKSSSTAYMQLSSLTSDDSAVYFCAREGEKHSYYFDYWGQGTTLTVSS
VL: DIVLTQSPASLAVSLGQRATISCRASESVDSYGDSFMHWYQQKPGQPPKLLIYLASNLESGVPARFSGSGSRTDFTLTIDPVEADDAATYYCQQNNEDPPTFGGGTKLEIKR
notes: Phage display clone
B2: BGF2A2-92 (antibody, V domains shown)
VH: EVQLVESGGGLVQPGGSLKLSCAASGFTFSDYYMYWVRQTPEKRLEWVATISDGGDYTYYPDSVKGRFTISRDNAKNNLYLQMSSLKSEDTAMYYCAREGDYYGPFAYWGQGTTLTVSS
VL: DIVMTQSQKFMSTSVGDRVSITCKASQNVGTAVAWYQQKPGQSPKALIYSASYRYSGVPDRFTGSGSGTDFTLTISNVQSEDLAEYFCQQYNSYPYTFGGGTKLEIKR
notes: Phage display clone
B3: 16.7Chi (antibody, V domains shown)
VH: EVLLQQSGPELVKPGASVKISCKASGYTFTDYNMDWVKQSHGKSLEWIGDINPNVGDTIYNQKFKGKATLTVDKSSSTAYMELRSLTSEDSAVYYCVRSDDDYSWFAHWGQGTLVTVSA
VL: SIVMTQTPKFLLVSAGDRVTITCKASQSVSNDVAWYQQKSGQSPKLLIYYASNRYTGVPDRFTGSGYGTDFTFTISTVQAELAVYFCQQDSSSPLTFGAGTKLELKR
notes: also called chimeric antibody of the variable region of M16.7 fused with the constant region of human IgG1
B4: 106.17Chi (antibody, V domains shown)
VH: B3 VH with S21P, V55N, K63N, G66D, D73N, S91T, D102N, A107T, H108Y
VL: B3 VL
notes: also called chimeric antibody of the variable region of M106.17 fused with the constant region of human IgG1
B5: GP42-27 (antibody, V domains shown)
VH: QVKLQESGAELVRPGTSVKISCKASGYTFTNYDINWVKQRPGQGLEWIGWIDPGDGRTKYNENFKDKASLTADKSSSTAYMQLSSLTSEDSAVYYCARVGDDYDGGFDYWGQGTTVTVSS
VL: DIELTQSPASLAVSLGQRATISCRASESVDSYGNSFMHWYQQKPGQPPRLLIYAASNQESGIPARFSGSGSRTDFTLTINPVEADDVATYYCQQSYEDPYTFGGGTKLELKR
notes: Phage display clone
B6: GP42-09 (antibody, V domains shown)
VH: QVKLQQSGAELVRPGALVKLSCKASGFNIKDYYMHWVKQRPEQGLEWIGWIDPENGNTIYDPKFQGKASITADTSSNTAYLQLSSLTSEDSAVYFCARVGDDYDGDFDYWGQGTTVTVSS
VL: B5 VL with N34D, R49K, A54R, Q58L, L110I
notes: Phage display clone
B7: 34.22Chi (antibody, V domains shown)
VH: QVQLQQSGAELVRPGVSVKISCKGSGYTFTDYSIHWVKQSHAKSLEWIGVISSYYGDARHNQKFKGKATMTVDKSSSTAYMELARLTSEDSAIYYCARDGYYGYAMDYWGQGTSVTVSS
VL: DVVMTQTPLSLPVSLGDQASISCRSTQSLVHSNGNTYLHWYLQKPGQSPKLLIYKVSYRFSGVPDRFSGSGSGTDFTLKISRVEAEDLGVYFCSQSTHVPFTFGSGTKLEIKR
notes: also called chimeric antibody of the variable region of M34.22 fused with the constant region of human IgG1
B8: GP42-10 (antibody, V domains shown)
VH: QVKLQQSGPDLVKPGSLVKISCKASGYTFSNYDINWVKQRPGQGLEWIGWIDPGNGRTKYNEKFEDKATLTADKSSSTAYMQLSSLTSEDSAVYFCARVGDDYDGDFDYWGQGTTVTVSS
VL: DIELTQSPTIMSASPGEKVTMTCRASESVDSYGNSFMHWYQQKPGLPPKLLIYRASNLESGIPARFSGSGSRTDFTLTINPVEADDVATYYCQQSNEYPYTFGGGTKLEIKR
notes: Phage display clone
B9: GP31-52 (antibody, V domains shown)
VH: B8 VH with K3Q, S16A, T28S, S30T, E65T, D66G, T69S, Q82V, D90N, D106G
VL: DIELTQSPSIMAASLGQKVTMTCSASSSVSSSYLHWYQQKSGASPKPLIHRTSNLASGVPARFSGSGSGNSYSLTISSMEAEDVATYYCFQGSGYPYTFGGGTKLEIKR
notes: Phage display clone
B10: GP42-58 (antibody, V domains shown)
VH: B8 VH with S16A, S30T, N31S, N55D, D66G, T69S, Q82L, E89D, D90N, D106G
VL: B8 VL with T9A, M21I, T22S, R24S, H38N, L46Q, A64V, S69G
notes: Phage display clone

Target: T1, granulysin mutant RRRR97/100/104/108AAAA
Assay: ELISA, antibody coated, His-tagged mutant granulysin detected with anti-His-HRP
Protocol: (§1) To the antibody-coated plates, 200 μl of serially diluted samples (wild-type or mutant granulysin) were added to each well. The solutions were then incubated at 37° C. for 2 hours.
(§2) After washing to remove the unbound proteins, the bound proteins that were produced with His-tag (or any other tag or a fusion protein), can be detected with an anti-H is antibody coupled with HRP (for example, Sigma, A7058) at an appropriate dilution (e.g., 1:2000). The secondary antibodies were allowed to bind to the bound proteins by incubation at 37° C. for 2 hours (or any suitable duration and temperatures).

| Binder | binding result |
| --- | --- |
| B1 | no binding |
| B2 | no binding |

Target: T2, granulysin mutant …
Assay: as above
Protocol: as §1, §2

| Binder | binding result |
| --- | --- |
| B1 | no binding |

The binders below were run against T3, denatured granulysin (10His tag, …) (assay: blot of denaturing SDS-PAGE probed with the antibody, anti-human-HRP).
Description: The expressed granulysin may be run on a denatured SDS-PAGE and then probed with the test antibodies. Whether the test antibodies bind to the denatured granulysin can be detected using a secondary antibody (containing a reporter group; e.g., anti-human-HRP).

| Binder | binding result |
| --- | --- |
| B3 | no binding |
| B4 | no binding |
| B5 | no binding |
| B6 | no binding |
| B7 | no binding |
| B8 | no binding |
| B9 | no binding |
| B10 | no binding |

Source: patent US20140186352A1 (DEVELOPMENT CENTER FOR BIOTECHNOLOGY, published 2014)
